Test results from US10774143 (LA JOLLA INSTITUTE FOR ALLERGY AND IMMUNOLOGY, dated 2020).

Key:
[1] = biological target: SWAP-70-like adaptor of T cells (SLAT), endogenous mouse protein (mouse) (UniProt Q8C2K1); experiment: cell-based or functional assay
[2] = biological target: SWAP-70-like adaptor of T cells (SLAT), endogenous mouse protein (mouse) (UniProt Q8C2K1); experiment: co-IP of SLAT and IP3R1 from CD4+ T cells pre-incubated with TAT protein, densitometry against control TAT-HA
[3] = biological target: T1, Flag-tagged IP3R1-f2.1 (residues 346-490) (Homo sapiens (Human), UniProt Q14643 346-490); experiment: co-IP from Jurkat-TAg cells cotransfected with Flag-IP3R1-f2.1
T1 construct: not shown: Flag tag

TAT-HA-2.1 Δ18 fusion protein (TAT-HA fused to IP3R1 residues 346-490 deleted of residues 400-417) (from UniProt Q14643 346-490)
anti-CD3/CD28-stimulated IFNγ production by CD4+ T cells (ELISA), reduction [1]: 15 to 20%
percent reduction of the SLAT-IP3R1 interaction [2]: 20%

B1: Myc-tagged SLAT putative EF-hand domain (other)
chain: MALRKELLKSIWYAFTALDVEKSGKVSKSQLKVLSHNLYTVLHIPHDPVALEEHFRDDDDGPVSSQGYMPYL
notes: not shown: Myc tag downstream of the insert (pEF-Myc-His A/C vector)
binding result [3]: binds
